Substrate in this series: Nc1ncnc2c1ncn2[C@@H]1O[C@H](COP(=O)(O)OP(=O)(O)OP(=O)(O)O)[C@@H](O)[C@H]1O
As to the kind of experiment: malachite green phosphate release assay, Michaelis-Menten fit. The note with it: no DNA, 5 mM MgCl2, 120 mM KCl, 10 mM HEPES-KOH pH 7.5, 37 °C, 250 nM MutS dimer. It counts as biochemical, Escherichia coli. An excerpt:
malachite green phosphate release assay, Michaelis-Menten fit on ecMutS

This is an account of results in PMC7699706, “Responses of DNA Mismatch Repair Proteins to a Stable G-Quadruplex Embedded into a DNA Duplex Structure” (International Journal of Molecular Sciences, 2020).

Broadly, the Km is the concentration of substrate that gives half-maximal velocity. As a reminder, the kcat is the maximal rate divided by the concentration of active sites.

B1: ecMutS (Escherichia coli K-12) (protein)
chain: MSAIENFDAHTPMMQQYLRLKAQHPEILLFYRMGDFYELFYDDAKRASQLLDISLTKRGASAGEPIPMAGIPYHAVENYLAKLVNQGESVAICEQIGDPATSKGPVERKVVRIVTPGTISDEALLQERQDNLLAAIWQDSKGFGYATLDISSGRFRLSEPADRETMAAELQRTNPAELLYAEDFAEMSLIEGRRGLRRRPLWEFEIDTARQQLNLQFGTRDLVGFGVENAPRGLCAAGCLLQYAKDTQRTTLPHIRSITMEREQDSIIMDAATRRNLEITQNLAGGAENTLASVLDCTVTPMGSRMLKRWLHMPVRDTRVLLERQQTIGALQDFTAGLQPVLRQVGDLERILARLALRTARPRDLARMRHAFQQLPELRAQLETVDSAPVQALREKMGEFAELRDLLERAIIDTPPVLVRDGGVIASGYNEELDEWRALADGATDYLERLEVRERERTGLDTLKVGFNAVHGYYIQISRGQSHLAPINYMRRQTLKNAERYIIPELKEYEDKVLTSKGKALALEKQLYEELFDLLLPHLEALQQSASALAELDVLVNLAERAYTLNYTCPTFIDKPGIRITEGRHPVVEQVLNEPFIANPLNLSPQRRMLIITGPNMGGKSTYMRQTALIALMAYIGSYVPAQKVEIGPIDRIFTRVGAADDLASGRSTFMVEMTETANILHNATEYSLVLMDEIGRGTSTYDGLSLAWACAENLANKIKALTLFATHYFELTQLPEKMEGVANVHLDALEHGDTIAFMHSVQDGAASKSYGLAVAALAGVPKEVIKRARQKLRELESISPNAAATQVDGTQMSLLSVPEETSPAVEALENLDPDSLTPRQALEWIYRLKSLV
notes: recombinant, N-terminal His6 tag, expressed in E. coli BL21(DE3), Ni-NTA and size exclusion; homodimer
On to B1, for which the Km is on record as 35 ± 15 µM and the kcat came out at 0.117 ± 0.0167 s⁻¹.
